These results are taken from PMC5522078, “Discovery and characterization of small molecules targeting the DNA-binding ETS domain of ERG in prostate cancer” (Oncotarget, 2017).

The target of the data set is T1, ERG-ETS domain (UniProt P11308 307-400).
T1 sequence: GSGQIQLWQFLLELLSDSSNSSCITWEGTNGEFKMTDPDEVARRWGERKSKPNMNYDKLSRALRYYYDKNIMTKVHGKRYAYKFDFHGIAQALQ
Description: EMSA; no compound; 1 nM DNA; EMSA: protein stored in 20 mM sodium phosphate, 200 mM NaCl, 2 mM DTT, 0.1 mM EDTA, pH 6.5; reaction with 3% glycerol, 0.2 mg/mL BSA, 1 nM dsDNA, room temperature 1 h; 10% native gel run at 10 C. Particulars: protein: recombinant; tags: His6 removed by thrombin; label: Alexa-488; blunt.

B1: ETS consensus GGAA probe (dsDNA)
DNA 1: CGGCCAAGCCGGAAGTGAGTG
DNA 2: CACTCACTTCCGGCTTGGCCG
With B1, the Kd was approximately 1 nM.
